Reference: PMC2844151

Molecular target: T1, Mycobacterium tuberculosis cAMP receptor protein (Rv3676) (Mycobacterium tuberculosis), P9WMH3
T1 chain: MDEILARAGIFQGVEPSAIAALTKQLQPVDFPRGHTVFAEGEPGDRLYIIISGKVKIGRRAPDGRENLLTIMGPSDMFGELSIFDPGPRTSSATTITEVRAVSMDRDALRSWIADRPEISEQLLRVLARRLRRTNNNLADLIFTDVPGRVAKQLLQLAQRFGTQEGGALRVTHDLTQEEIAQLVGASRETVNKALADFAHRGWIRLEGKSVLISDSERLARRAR
Assay: cross-linking
Conditions: remark: other sources report otherwise

B1: Mycobacterium tuberculosis cAMP receptor protein (Rv3676), P9WMH3 1-224 (natural protein)
chain: MDEILARAGIFQGVEPSAIAALTKQLQPVDFPRGHTVFAEGEPGDRLYIIISGKVKIGRRAPDGRENLLTIMGPSDMFGELSIFDPGPRTSSATTITEVRAVSMDRDALRSWIADRPEISEQLLRVLARRLRRTNNNLADLIFTDVPGRVAKQLLQLAQRFGTQEGGALRVTHDLTQEEIAQLVGASRETVNKALADFAHRGWIRLEGKSVLISDSERLARRAR
stoichiometry N: 2
